Measurements as given in patent US20180022780A1 (Bayer, published 2018).
Bridge positions count the residues as written; N and C are the ends. Square brackets hold non-standard residues; d marks the D form. Ends that are not written are not given here. * marks the point of attachment. Palmitoyl = CCCCCCCCCCCCCCCC(=O)*; NMeK = CN[C@@H](CCCCN)C(=O)O; Orn = NCCC[C@H](N)C(=O)O; Dab = NCC[C@H](N)C(=O)O; Dap = NC[C@H](N)C(=O)O

Assays:
[1] = target: human adrenomedullin-receptor (human, UniProt Q16602 23-461); experiment: cell-based or functional assay
human adrenomedullin-receptor, sequence (Q16602 23-461): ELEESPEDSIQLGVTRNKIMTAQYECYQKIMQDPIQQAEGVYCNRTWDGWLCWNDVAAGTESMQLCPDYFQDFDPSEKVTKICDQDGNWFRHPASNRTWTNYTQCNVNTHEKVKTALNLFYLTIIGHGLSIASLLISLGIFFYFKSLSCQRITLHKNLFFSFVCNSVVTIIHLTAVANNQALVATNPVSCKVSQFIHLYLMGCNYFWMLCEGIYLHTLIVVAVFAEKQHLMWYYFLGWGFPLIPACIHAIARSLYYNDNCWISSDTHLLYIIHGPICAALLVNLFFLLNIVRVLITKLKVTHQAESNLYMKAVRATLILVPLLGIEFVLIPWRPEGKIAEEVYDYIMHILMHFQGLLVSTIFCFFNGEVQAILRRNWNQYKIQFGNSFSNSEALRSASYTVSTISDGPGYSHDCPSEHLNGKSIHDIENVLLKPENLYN

[2] = target: CLR fused to EYFP with RAMP2 fused to ECFP; experiment: cell-based or functional assay
CLR fused to EYFP with RAMP2 fused to ECFP, sequence (Q16602 whole entry, chain 1 of 2, the tested form may be a part): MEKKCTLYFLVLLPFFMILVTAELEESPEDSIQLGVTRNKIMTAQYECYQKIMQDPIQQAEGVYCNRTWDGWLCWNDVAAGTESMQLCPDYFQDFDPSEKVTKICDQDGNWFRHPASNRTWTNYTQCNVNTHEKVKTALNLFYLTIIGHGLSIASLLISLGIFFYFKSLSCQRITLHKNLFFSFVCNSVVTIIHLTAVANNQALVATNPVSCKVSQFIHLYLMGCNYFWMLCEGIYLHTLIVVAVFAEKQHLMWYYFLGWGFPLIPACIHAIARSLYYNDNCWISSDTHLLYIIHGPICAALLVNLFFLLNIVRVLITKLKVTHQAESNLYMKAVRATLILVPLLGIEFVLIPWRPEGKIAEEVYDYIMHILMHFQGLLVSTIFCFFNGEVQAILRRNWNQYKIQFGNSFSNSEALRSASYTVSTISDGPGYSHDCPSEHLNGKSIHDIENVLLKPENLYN
CLR fused to EYFP with RAMP2 fused to ECFP, sequence (O60895 whole entry, chain 2 of 2, further chain, the tested form may be a part): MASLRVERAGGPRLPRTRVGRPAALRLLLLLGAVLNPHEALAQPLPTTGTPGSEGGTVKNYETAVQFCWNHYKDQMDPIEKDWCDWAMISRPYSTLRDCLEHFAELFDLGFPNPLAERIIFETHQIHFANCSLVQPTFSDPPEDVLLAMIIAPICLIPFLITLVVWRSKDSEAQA

Binder | EC50 [nM], aequorin luminescence of CHO adrenomedullin-receptor reporter cells [1] [nM] | EC50 [nM], cAMP assay (CRE-luciferase luminescence, HEK293 cells) [2] [nM]
GG[Dap]RFGTDTVQKLAHQIYQFTDKDKDNVAPRSKISPQGY-NH2 (lactam 3-8; N-terminus assumed; SMILES CC[C@H](C)[C@H](NC(=O)[C@H](CCC(N)=O)NC(=O)[C@H](Cc1c[nH]cn1)NC(=O)[C@H](C)NC(=O)[C@H](CC(C)C)NC(=O)[C@H](CCCCN)NC(=O)[C@H](CCC(N)=O)NC(=O)[C@@H](NC(=O)[C@@H](NC(=O)[C@@H]1CC(=O)NC[C@H](NC(=O)CNC(=O)CN)C(=O)N[C@@H](CCCNC(=N)N)C(=O)N[C@@H](Cc2ccccc2)C(=O)NCC(=O)N[C@@H]([C@@H](C)O)C(=O)N1)[C@@H](C)O)C(C)C)C(=O)N[C@@H](Cc1ccc(O)cc1)C(=O)N[C@@H](CCC(N)=O)C(=O)N[C@@H](Cc1ccccc1)C(=O)N[C@H](C(=O)N[C@@H](CC(=O)O)C(=O)N[C@@H](CCCCN)C(=O)N[C@@H](CC(=O)O)C(=O)N[C@@H](CCCCN)C(=O)N[C@@H](CC(=O)O)C(=O)N[C@@H](CC(N)=O)C(=O)N[C@H](C(=O)N[C@@H](C)C(=O)N1CCC[C@H]1C(=O)N[C@@H](CCCNC(=N)N)C(=O)N[C@@H](CO)C(=O)N[C@@H](CCCCN)C(=O)N[C@H](C(=O)N[C@@H](CO)C(=O)N1CCC[C@H]1C(=O)N[C@@H](CCC(N)=O)C(=O)NCC(=O)N[C@@H](Cc1ccc(O)cc1)C(N)=O)[C@@H](C)CC)C(C)C)[C@@H](C)O) [[G^14, (Dpr^16, D^21)lac]ADM(14-52)] | 49.6 | 67
GGDRFGTKTVQKLAHQIYQFTDKDKDNVAPRSKISPQGY-NH2 (lactam 3-8) [[G^14, (D^16, K^21)lac]ADM(14-52)] | 15 | 2.3
GGCRFGTXTVQKLAHQIYQFTDKDKDNVAPRSKISPQGY (palmitic acid (PAM) on the N-terminus (G14); positions 16 and 21 (residues 3 and 8 of the letters) together are cystathionine (C^16→U^21, thioether); X stands for the printed U at 21; C-terminal …) [PAM[G^14, (C^16→U^21)]ADM(14-52)] | 15 | 16.9
GGDRFGT[Dab]TVQKLAHQIYQFTDKDKDNVAPRSKISPQGY-NH2 (lactam 3-8) [[G^14, (D^16, Dab^21)lac]ADM(14-52)] | 21.1 | 21
GGDRFGT[Dap]TVQKLAHQIYQFTDKDKDNVAPRSKISPQGY-NH2 (lactam 3-8) [[G^14, (D^16, Dpr^21)lac]ADM(14-52)] | 32 | > 1000

The next lines start with the values.

EC50 [nM], aequorin luminescence of CHO adrenomedullin-receptor reporter cells [1] [nM] | EC50 [nM], cAMP assay (CRE-luciferase luminescence, HEK293 cells) [2] [nM] | Binder
> 1000 | > 1000 | GGKRFGTDTVQKLAHQIYQFTDKDKDNVAPRSKISPQGY-NH2 (lactam 3-8; N-terminus assumed; SMILES CC[C@H](C)[C@H](NC(=O)[C@H](CCC(N)=O)NC(=O)[C@H](Cc1c[nH]cn1)NC(=O)[C@H](C)NC(=O)[C@H](CC(C)C)NC(=O)[C@H](CCCCN)NC(=O)[C@H](CCC(N)=O)NC(=O)[C@@H](NC(=O)[C@@H](NC(=O)[C@@H]1CC(=O)NCCCC[C@H](NC(=O)CNC(=O)CN)C(=O)N[C@@H](CCCNC(=N)N)C(=O)N[C@@H](Cc2ccccc2)C(=O)NCC(=O)N[C@@H]([C@@H](C)O)C(=O)N1)[C@@H](C)O)C(C)C)C(=O)N[C@@H](Cc1ccc(O)cc1)C(=O)N[C@@H](CCC(N)=O)C(=O)N[C@@H](Cc1ccccc1)C(=O)N[C@H](C(=O)N[C@@H](CC(=O)O)C(=O)N[C@@H](CCCCN)C(=O)N[C@@H](CC(=O)O)C(=O)N[C@@H](CCCCN)C(=O)N[C@@H](CC(=O)O)C(=O)N[C@@H](CC(N)=O)C(=O)N[C@H](C(=O)N[C@@H](C)C(=O)N1CCC[C@H]1C(=O)N[C@@H](CCCNC(=N)N)C(=O)N[C@@H](CO)C(=O)N[C@@H](CCCCN)C(=O)N[C@H](C(=O)N[C@@H](CO)C(=O)N1CCC[C@H]1C(=O)N[C@@H](CCC(N)=O)C(=O)NCC(=O)N[C@@H](Cc1ccc(O)cc1)C(N)=O)[C@@H](C)CC)C(C)C)[C@@H](C)O) [[G^14, (K^16, D^21)lac]ADM(14-52)]
27 | 9.1 | GG[Orn]RFGTETVQKLAHQIYQFTDKDKDNVAPRSKISPQGY-NH2 (lactam 3-8; N-terminus assumed; SMILES CC[C@H](C)[C@H](NC(=O)[C@H](CCC(N)=O)NC(=O)[C@H](Cc1c[nH]cn1)NC(=O)[C@H](C)NC(=O)[C@H](CC(C)C)NC(=O)[C@H](CCCCN)NC(=O)[C@H](CCC(N)=O)NC(=O)[C@@H](NC(=O)[C@@H](NC(=O)[C@@H]1CCC(=O)NCCC[C@H](NC(=O)CNC(=O)CN)C(=O)N[C@@H](CCCNC(=N)N)C(=O)N[C@@H](Cc2ccccc2)C(=O)NCC(=O)N[C@@H]([C@@H](C)O)C(=O)N1)[C@@H](C)O)C(C)C)C(=O)N[C@@H](Cc1ccc(O)cc1)C(=O)N[C@@H](CCC(N)=O)C(=O)N[C@@H](Cc1ccccc1)C(=O)N[C@H](C(=O)N[C@@H](CC(=O)O)C(=O)N[C@@H](CCCCN)C(=O)N[C@@H](CC(=O)O)C(=O)N[C@@H](CCCCN)C(=O)N[C@@H](CC(=O)O)C(=O)N[C@@H](CC(N)=O)C(=O)N[C@H](C(=O)N[C@@H](C)C(=O)N1CCC[C@H]1C(=O)N[C@@H](CCCNC(=N)N)C(=O)N[C@@H](CO)C(=O)N[C@@H](CCCCN)C(=O)N[C@H](C(=O)N[C@@H](CO)C(=O)N1CCC[C@H]1C(=O)N[C@@H](CCC(N)=O)C(=O)NCC(=O)N[C@@H](Cc1ccc(O)cc1)C(N)=O)[C@@H](C)CC)C(C)C)[C@@H](C)O) [[G^14, (Orn^16, E^21)lac]ADM(14-52)]
56 | 3.4 | K(Palmitoyl)G[Dap]RFGTETVQKLAHQIYQFTDKDKDNVAPRS[NMeK]ISPQGY-NH2 (lactam 3-8; N-terminus assumed; SMILES CCCCCCCCCCCCCCCC(=O)NCCCC[C@H](N)C(=O)NCC(=O)N[C@H]1CNC(=O)CC[C@@H](C(=O)N[C@H](C(=O)N[C@H](C(=O)N[C@@H](CCC(N)=O)C(=O)N[C@@H](CCCCN)C(=O)N[C@@H](CC(C)C)C(=O)N[C@@H](C)C(=O)N[C@@H](Cc2c[nH]cn2)C(=O)N[C@@H](CCC(N)=O)C(=O)N[C@H](C(=O)N[C@@H](Cc2ccc(O)cc2)C(=O)N[C@@H](CCC(N)=O)C(=O)N[C@@H](Cc2ccccc2)C(=O)N[C@H](C(=O)N[C@@H](CC(=O)O)C(=O)N[C@@H](CCCCN)C(=O)N[C@@H](CC(=O)O)C(=O)N[C@@H](CCCCN)C(=O)N[C@@H](CC(=O)O)C(=O)N[C@@H](CC(N)=O)C(=O)N[C@H](C(=O)N[C@@H](C)C(=O)N2CCC[C@H]2C(=O)N[C@@H](CCCNC(=N)N)C(=O)N[C@@H](CO)C(=O)N(C)[C@@H](CCCCN)C(=O)N[C@H](C(=O)N[C@@H](CO)C(=O)N2CCC[C@H]2C(=O)N[C@@H](CCC(N)=O)C(=O)NCC(=O)N[C@@H](Cc2ccc(O)cc2)C(N)=O)[C@@H](C)CC)C(C)C)[C@@H](C)O)[C@@H](C)CC)C(C)C)[C@@H](C)O)NC(=O)[C@H]([C@@H](C)O)NC(=O)CNC(=O)[C@H](Cc2ccccc2)NC(=O)[C@H](CCCNC(=N)N)NC1=O) [[K^14(PAM), (Dpr^16,E^21)lac, N-Me-K^46]ADM(14-52)]
